Reference: US20140004122A1, “METHODS FOR TREATING OR PREVENTING CHOLESTEROL RELATED DISORDERS” (AMGEN INC., priority 2011, published 2014)

Legend:
human PCSK9 = human PCSK9 (Homo sapiens, UniProt Q8NBP7); experiment: BIAcore affinity analysis; assay type: binding; conditions: human PCSK9, pH 6.0, n=1
[1] = tested on: human patient exhibiting a risk of developing hypercholesterolemia; experiment: Prevention of hypercholesterolemia (Example 19); assay type: in vivo; conditions: regularly administered (e.g., one time weekly)
Source text: At periodic times during the treatment, the patient is monitored to determine whether serum cholesterol levels have decreased.

cynomolgus monkeys = experiment: Serum lipids after single subcutaneous dose in cynomolgus monkeys (Example 36); assay type: in vivo, cynomolgus monkey; conditions: 0.5 mg/kg single SC
Source text: Briefly, naive male cynomolgus monkeys were acclimated to their environment for at least 2 weeks prior to experimentation. Animals were randomized into treatment groups based on a pre-screen of their serum TC, HDL-C, LDL-C, and triglyceride levels, and their body weight. After 1 week, animals were fasted overnight, and bled from the peripheral vasculature (cephalic or saphenous vein), for measurement of baseline serum lipid levels at a time point designated T=0. […] Fasting blood samples were then collected from animals at designated time points over a 45 day period.
At specified time points, blood was collected from animals under overnight fasting conditions from the peripheral vasculature (cephalic or saphenous vein). Whole blood was allowed to coagulate for 30 minutes at room temperature. Following centrifugation at 3,000 rpm for 20 minutes, serum was collected. Direct serum cholesterol analysis was performed using the Cobas Integra 400 analyzer (Roche Diagnostics Inc, Indianapolis, Ind.). Apolipoprotein B serum levels were determined at specified time points (day 0, 3, 6, 15, 24 and 33) by Anilytics, MD, with the following methodology. A 17 μL aliquot of the sample (no preparation) was used for analysis with a Hitachi 717 Analyzer using a 6 points standard curve. If the initial value of the sample was higher than the standard curve linearity, then the sample was diluted and repeated with the result multiplied by the appropriate dilution factor. The reagents for the assay (APO-B Reagent Kit #86071, Antibody Set #86060, Control Set #86103) were obtained from DiaSorin (Stillwater, Minn.).
A statistical model that considers baseline as a covariate and treatment group as a fixed effect was fit to the log transformed response at each time point for LDL-C, HDL-C, TC, and triglycerides. Tukey's multiple comparison correction was applied to adjust the pair wise comparisons at each time point. The statistical significance was evaluated at alpha=0.05 using adjusted p-values.

[2] = tested on: subjects with heterozygous familial hypercholesterolemia (HeFH); experiment: 12 week study in heterozygous familial hypercholesterolemia (Example 22); assay type: in vivo, human; conditions: preliminary
Method: This study is a double-blind, randomized, stratified, placebo-controlled clinical trial evaluating the safety, tolerability, and efficacy of monocloncal antibody 21B12 in subjects having a diagnosis of HeFH. A total enrollment of 150 subjects is planned. […] Randomization will be stratified by screening LDL-C level (<130 mg/dL [3.4 mmol/L] vs≧130 mg/dL) and ezetimibe use at baseline (yes vs no). Randomization should occur within 5-10 days of the screening LDL-C evaluation used to determine eligibility. Monoclonal antibody, 21B12, and placebo will be blinded. Study visits are at weeks 2, 4, 8, and 12. […] The end-of-study (EOS) visit and the last evaluation of lipids is at week 12.
Males and females, ≧18 to ≦75 years of age, and with a diagnosis of heterozygous familial hypercholesterolemia by the diagnostic criteria of the Simon Broome Register Group (SBRG), are eligible for this study. For enrollment, subjects must be on an approved statin, with stable dose(s) for all allowed (eg, ezetimibe, bile-acid sequestering resin, stanols, or regulatory-approved and marketed niacin (eg, Niaspan or Niacor)) lipid-regulating drugs for at least 4 weeks before LDL-C screening and, in the opinion of the investigator, not requiring uptitration. Fasting LDL-C must be ≧100 mg/dL (2.6 mmol/L) and fasting triglycerides ≦400 mg/dL (4.5 mmol/L) by central laboratory at screening.

[3] = tested on: human patient exhibiting symptoms of hypercholesterolemia; experiment: Treatment of hypercholesterolemia (Example 17); assay type: in vivo; conditions: therapeutically effective amount
Source text: At periodic times during the treatment, the human patient is monitored to determine whether the serum cholesterol level has declined.

LDLR in HepG2 cells = experiment: LDLR levels with statin and ABP in HepG2 cells (immunoblot); assay type: cell-based, human; conditions: HepG2 and HepG2-PCSK9 cells, with mevinolin, 48 hours
Method: HepG2 cells were seeded in DMEM with 10% fetal bovine serum (FBS) and grown to ˜90% confluence. The cells were treated with indicated amounts of mevinolin (a statin, Sigma) and PCSK9 ABPs (FIGS. 12A-12C) in DMEM with 3% FBS for 48 hours. Total cell lysates were prepared. […] of total proteins were separated by gel electrophoresis and transferred to PVDF membrane. Immunoblots were performed using rabbit anti-human LDL receptor antibody (Fitzgerald) or rabbit anti-human b-actin antibody. The enhanced chemiluminescent results are shown in the top panels of FIGS. 12A-12C. The intensity of the bands were quantified by ImageJ software and normalized by b-actin. The relative levels of LDLR are shown in the lower panels of FIGS. 12A-12C.

healthy subjects = experiment: Phase 1 ascending single dose study (Example 20); assay type: in vivo, human
[4] = 350 mg Q4W SC, end of the dosing interval

Sequence of human PCSK9 (Q8NBP7 153-692): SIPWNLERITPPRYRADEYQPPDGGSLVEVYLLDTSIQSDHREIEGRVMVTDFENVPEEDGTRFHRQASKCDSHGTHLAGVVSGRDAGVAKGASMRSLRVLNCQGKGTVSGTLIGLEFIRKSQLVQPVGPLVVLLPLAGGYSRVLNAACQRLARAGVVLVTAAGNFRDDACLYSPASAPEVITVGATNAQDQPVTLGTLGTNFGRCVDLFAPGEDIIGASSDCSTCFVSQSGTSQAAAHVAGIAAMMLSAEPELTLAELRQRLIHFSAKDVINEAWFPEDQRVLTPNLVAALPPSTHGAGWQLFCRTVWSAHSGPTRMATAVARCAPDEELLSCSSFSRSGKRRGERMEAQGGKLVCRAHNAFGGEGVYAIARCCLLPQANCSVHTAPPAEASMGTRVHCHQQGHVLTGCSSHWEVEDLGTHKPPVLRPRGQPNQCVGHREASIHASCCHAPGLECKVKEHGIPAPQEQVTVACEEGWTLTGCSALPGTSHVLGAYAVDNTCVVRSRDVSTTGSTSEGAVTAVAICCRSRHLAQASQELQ

B1: 21B12: human anti-PCSK9 monoclonal antibody; light/heavy variable region SEQ ID NO 23/49 (antibody, listed as Homo sapiens, V domains shown)
VH: QVQLVQSGAEVKKPGASVKVSCKASGYTLTSYGISWVRQAPGQGLEWMGWVSFYNGNTNYAQKLQGRGTMTTDPSTSTAYMELRSLRSDDTAVYYCARGYGMDVWGQGTTVTVSS
VL: QSALTQPASVSGSPGQSITISCTGTSSDVGGYNSVSWYQQHPGKAPKLMIYEVSNRPSGVSNRFSGSKSGNTASLTISGLQAEDEADYYCNSYTSTSMVFGGGTKLTVL
Kd (human PCSK9): 7.3 pM | serum cholesterol levels vs subjects that are not treated [1]: lowered serum cholesterol levels | LDL-C returned to levels similar to control animals by day (cynomolgus monkeys): ≤ 6 days | TC returned to levels similar to control animals by day (cynomolgus monkeys): ≤ 4 days | maximal lowering of LDL-C as compared to anti-KLH IgG2 control antibody-treated monkeys (cynomolgus monkeys): 64% | maximal lowering of TC as compared to control animals (cynomolgus monkeys): 20% | time of maximal LDL-C lowering after injection (cynomolgus monkeys): 3 days | time of maximal TC lowering after injection (cynomolgus monkeys): 3 days | HDL-C levels (cynomolgus monkeys; 45 day study): lowered HDL-C at a single time point, 18 days after injection | triglycerides levels (cynomolgus monkeys; 45 day study): No statistically significant changes | HDL-C or triglyceride levels vs anti-KLH IgG2 control antibody-treated monkeys (cynomolgus monkeys; alpha=0.05): statistically significant change in HDL-C at a single time point (day 18 following injection) | serum ApoB levels vs anti-KLH IgG2 control antibody-treated monkeys (cynomolgus monkeys; days 3, 6, 15, 24 and 33): statistically significant lower ApoB levels at day 3 only | maximal lowering of LDL-C (vs anti-KLH IgG2 control antibody at the same time point) (cynomolgus monkeys; printed as negative change): −64% | LS mean percent increase from baseline in HDL-C [2, 4]: 15.39% | LS mean percent reduction from baseline in LDL-C [2, 4]: 38.46% | LS mean percent reduction from baseline in Lp(a) [2, 4]: 21.69% | LS mean percent reduction from baseline in VLDL-C [2, 4]: 17.16% | LS mean percent reduction from baseline in non-HDL cholesterol [2, 4]: 36.16% | LS mean percent reduction from baseline in total cholesterol [2, 4]: 24.82% | LS mean percent reduction from baseline in triglycerides [2, 4]: 17.24% | LS mean percent increase from baseline in HDL-C ([2]; 420 mg Q4W SC): 6.77% | LS mean percent reduction from baseline in LDL-C ([2]; 420 mg Q4W SC): 45.68% | LS mean percent reduction from baseline in Lp(a) ([2]; 420 mg Q4W SC): 28.23% | LS mean percent reduction from baseline in VLDL-C ([2]; 420 mg Q4W SC): 18.49% | LS mean percent reduction from baseline in non-HDL cholesterol ([2]; 420 mg Q4W SC): 41.81% | LS mean percent reduction from baseline in total cholesterol ([2]; 420 mg Q4W SC): 29.45% | LS mean percent reduction from baseline in triglycerides ([2]; 420 mg Q4W SC): 4.56% | serum cholesterol levels vs patients not receiving the treatment [3]: reduced serum cholesterol levels | LDLR levels compared with the 25A7.1 ABP (a non-neutralizer) (LDLR in HepG2 cells): greater increase in LDLR levels | AUC0-inf (median) (healthy subjects; 420 mg IV group): 1550 µg·days/mL | median maximum observed concentration (Cmax) (healthy subjects; 420 mg IV group): 139 µg/mL | subjects with treatment-related adverse events (healthy subjects; 18 of 42 subjects): 43% | subjects with treatment-emergent adverse events (healthy subjects; 21B12 at any dose, 29 of 42 subjects): 69% | anti-21B12 antibodies in serum (healthy subjects; all 42 subjects who received 21B12): negative | effects on laboratory variables, ECGs, vital signs (healthy subjects; in vivo): no trends indicative of clinically important effects | tolerability (healthy subjects; single SC and IV doses up to 420 mg): well tolerated | serious adverse events (healthy subjects; single SC or IV dose): No adverse events were reported as serious | LDL-C nadir observed within (after dosing) (healthy subjects; single dose): ≤ 2 weeks | elimination (healthy subjects; single dose SC or IV): nonlinear (concentration-dependent) elimination | suppression of PCSK9 (healthy subjects; single doses ≧70 mg SC): Complete suppression of PCSK9
